B1: ACSBG2 (parent)
chain: FAQADALKGTLVSTLKEVKPTVFI

Variants of: B1
Assay: protein stability index of a GFP-peptide fusion (GPS, HEK-293T) (PSI 1-6); higher = more stable
Settings: c terminus: a fixed tail appended
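Further: lentivirally expressed fusions sorted by FACS into six bins by GFP to DsRed ratio, PSI derived from sequencing read proportions per bin multiplied by bin number.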

Protein stability index of substitutions, site by site:
F1: W 1.46, E 3.21, L 2, M 2.14, I 2.25, D 2.43, H 1.98, K 2.25, N 2.59, G 2.46, T 2.33, R 1.83, P 2.31
S13: G 1.04, T 2.04, D 1.85, N 2.01, R 1.46, Q 1.39, K 3.44, H 1.84, M 3.57, Y 3.19, C 1.93, F 2.53, P 1.41, I 2.4, V 4.44, L 2.05, A 2.1, E 1.27
V18: G 1.79, W 3.71, D 1.68, N 2.43, A 2.63, R 1.89, P 1.74, K 1.92, M 1.44, E 5.23, S 1.98, H 1.28, I 2.48, C 3.06, T 1.26, L 1.04, Q 2.04
G9: D 1.59, W 3.93, K 2.32, I 4.73, N 1.27, A 2.24, H 1.55, P 2.01, R 2.76, S 2.84, Y 1.78, V 2.61, F 2.24, E 1.5, C 2.73, Q 2.52, T 1.38, M 2.03, L 2.72
V12: P 1.85, N 1.6, K 3.87, H 2.12, T 1.63, G 1.95, E 1.89, I 2.26, R 2.08, Q 1.52, C 1.76, S 1.34, D 1.81, A 1.64, L 1.25, M 1.66
Q3: C 1.4, R 2.92, I 4.29, L 2.44, A 1.86, W 2.13, E 1.74, K 2.06, M 3.51, G 3.16, D 1.36, Y 1.45, F 3.71, V 3.21, T 1.8, S 1.28, N 3.49
L11: I 2.55, K 1.67, H 1.72, Q 2.88, A 1.88, C 1.72, N 2.1, D 2.02, V 2.08, M 2.41, P 1.84, S 1.61, F 1.7, R 2.13, E 2.88, G 1.51, T 2.78
E17: T 3.12, I 1.86, L 2.51, S 1.81, M 2.29, N 3.2, A 1.03, F 2.07, P 1.83, Q 1.73, H 3.49, G 1.95, R 1.99, D 1.48, V 2.23, C 2.06, K 1.45
K8: S 1.71, H 2.74, N 1.59, G 2.31, P 1.4, A 2.12, Q 2.39, T 3.3, E 1.41, M 1.22, D 1.9, R 1.8, C 1.85, F 2.34, Y 3
A6: D 1.71, I 1.34, C 1.28, T 2.21, Q 1.54, G 1.57, W 3.31, E 1.95, N 1.58, P 1.69, V 2.58, H 1.61, F 2.84, S 2.08, R 1.67, Y 3.07, K 2.23, M 1.9

From the supplement of paper PMC10567573
